{"source": "the nanobody polyreactivity screen of Harvey et al. (2022)", "data": [{"assay": "yeast display, Sf9 membrane polyspecificity reagent, FACS + sequencing; frameworks hold sequencing errors", "how_it_was_run": "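Using colony PCR, genes from sorted yeast display clones were amplified, then sequenced on MiSeq at 2 × 250 and filtered by CDR length. The clones had been stained with 10% biotinylated, detergent-solubilized Sf9 membrane reagent for 1 hour at 4 °C and sorted by FACS into low and high (top ~1%) gates on anti-HA and streptavidin fluorescence. Polyreactivity labels come from the gate of origin.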", "values": [{"sequence": "QVQLVESGGGLVQAGGSLRLSCAASGIIFNTYAMGWYRQAPGKERELVAAIDSRDASTYADSVKGRFTISRDNAKNTVYVQMNSLKPEDTAVYYCNARIESYWLDFDYWGQGTQVTVSS", "polyreactivity (PSR sort gate)": "low polyreactivity"}, {"sequence": "QVQLVESGGGLVKAGGSLRLSCAASGFIFKRNVMGWYRQAPGKETELVARISSRGGSTYYADSVKGRFTISRDNAKNTVYLQMNSLKPEDTEVYYCAADFGTIRVYSGDYWGQGTQVTVSS", "polyreactivity (PSR sort gate)": "high polyreactivity"}, {"sequence": "QVQLVESGGGLVQAGGSLRLSCAASGYIFRIYAMGWYRQAPGKERELVARISSGGGTNYADSVKGRFTISRDNAKNTVYLQMNSLKPEDTAVYYCNAGYGSQRGGVFFYRMGYWGQGTQVTVSS", "polyreactivity (PSR sort gate)": "high polyreactivity"}, {"sequence": "QVQLVESGGGLVQAGGSLRLSCAASGRTFYPNAMGWYRQAPGKERELVAAISWSGGSTYYADSVKGRFTISRDNAKNTVYLQMNSLKPEDTAVYYCNARYLYWALSYDYWGQGTQVTVSS", "polyreactivity (PSR sort gate)": "low polyreactivity"}, {"sequence": "QVQLVESGGGLVQAGGSLRLSCAASGITFYKYVMGWYRQAPGKERELVARISKGGGSTYYADSVKGRFTISRDYAKNTVYLQMNSLKPEDTAVYYCNARGGYYVRSSAEYDYWGQGTQVTVSS", "polyreactivity (PSR sort gate)": "high polyreactivity"}, {"sequence": "QVQLVESGGGLVQAGGSLRLSSAASGSIFRYNAMGWYRQAPGKERELFAAISYRGGRTYYADSVKGRFTISRDNAKNTVYLQMNSLKPEDTAVYYCNADSIYSARGWLYGYWGQGTQVTVSS", "polyreactivity (PSR sort gate)": "low polyreactivity"}, {"sequence": "QVQLVESGGGLVQAGGSLRLSCAATGMIYERNAMGWYRQAPGKERELVAAITRSGSRTYYADSVKGRFTISRDNAKNTVYLQMNSLKPEDTAVYYCAKRSGYRAHYGYWGQGTQVTVSS", "polyreactivity (PSR sort gate)": "high polyreactivity"}, {"sequence": "QVQRVESGGGLVQAGGSLLLSCAASGRTIRHNAMGWYRPAPGKERELVAAISRSGGSTYYADSVKGRFTISRDKAKNTVYLLMNSLKPEDTAVYYCAAGYHGYDWGQGTQVTVSS", "polyreactivity (PSR sort gate)": "high polyreactivity"}, {"sequence": "QVQLVESGGGLVQAGGSLRLSCAAYGGTFNGNTMGWYRQAPGKERELVAVIDWSGGSTYYADSVKGRFTISRDNAKNTVYLQMNSLKPEDTAVYYCNADSDAQFREPKGLYYWGQGTQVTVSS", "polyreactivity (PSR sort gate)": "low polyreactivity"}, {"sequence": "QVQLVESGGGLVQAGGSLRLSCAASGRTFKLYAMGWYRQAPGKERELVATIRRSGTRTYADSVKGRFTISRDNAKNTVYLQMNSLKPEDTAVYYCAATTYGYVYHRYDYWGQGTQVTVSS", "polyreactivity (PSR sort gate)": "high polyreactivity"}, {"sequence": "QVQLVESGGGLVQAGGSLRLSCAASGLTFTYYALGWYRQAPGKERELVAAISSSGSDTYYADSVKGRFTISRDNAKNTVYLQMNSLKPEDTAVYYCAAVLTGLSPDFEYEYWGQGTQVTVSS", "polyreactivity (PSR sort gate)": "low polyreactivity"}, {"sequence": "QVQLVESVGGLVQAGGSLRLSCAASGRIFFYYGRGWYRQAPGKERELVAAITKRSSSTYYADSVKGRFTISRDNAKNTVYLQMNSLKPEDTAVYYCNAYPYRYVRRMDYWGQGTQVTVSS", "polyreactivity (PSR sort gate)": "high polyreactivity"}, {"sequence": "QVQLVESGGGLVQAGGSLRLSCAASGSNIATYAMGWYRQAPWKETELVAAISSTGRTYYADSVKGRFTISRDNAKNTVYLQMTRLKPVDTAVYYCNTVRYRSRYGMDYWGQGTQVTVSS", "polyreactivity (PSR sort gate)": "high polyreactivity"}, {"sequence": "QVQLVESGGGLVQAGGSLRLSCAASGITFAWYAMGWYRQAPGKEREFVAAITGSGGRTYYADSVKGRFTISRDIAKNTVYLQMNSLKPEDTAVYYCATASSVSGARYDYCGQGTQVTVSS", "polyreactivity (PSR sort gate)": "high polyreactivity"}, {"sequence": "QVHLVESGGGLVQAGGSLRLSCAASGRTFIRYTMGWYRQAPGKEREFVAAINTSGGRTYYADSVKGRFTISRDNAKNTVYLQMNSLKPEDTAVYYCAAGYSASRKVDYWGQGTQVTVSS", "polyreactivity (PSR sort gate)": "high polyreactivity"}, {"sequence": "QVQLVESGGGLVQAGGSLRLSCAASGRTFIRYAMGWYRQAPGKERELVAAITQSGGSTYYADSVKGRFTISRDNAKNTVYLQMNSLKPEDTAVYYCAAEYRYPGWSYNYWGQGTQVTVSS", "polyreactivity (PSR sort gate)": "high polyreactivity"}, {"sequence": "QVQLVESGGGLVQAGGSLRLSCAASGRTFAGNAMGWYRQAPGKERELVAAIRRTGGRTYYADSVKGRFTISRDNAKNTVYLQMNSLKPEETAVYYCNAVNKPYTREYGYDYWGQGTQVTGSS", "polyreactivity (PSR sort gate)": "high polyreactivity"}, {"sequence": "QVQLLESGGGLVQAGGSLRLSCAASGRIFDYYAMGWYRQAPGKERELVAAISDSGDSTYYADSVKGRFTISRDNAKNTVYLQMNRLKPVDTAVYYCAAQGGWIPAQDVRSSWGYNYWGQGTQVSVSS", "polyreactivity (PSR sort gate)": "high polyreactivity"}, {"sequence": "QVQLVESGGGLVQAGGSLRLSCAASGSTFDGYAMGWYRQAPGKERELVAAISSSGAYTYYADSVKGRFTISRDIAKNTVFLQMNSLKPEDTAVYYCNRVTYQQKNDYCGQGTQVTVSS", "polyreactivity (PSR sort gate)": "high polyreactivity"}, {"sequence": "QVQLVESGGGLVQAGGSLRLRCAASGRNFVANGKGWYRQAPGKERELVAAINDGDDTYYADSVKGRFTISRDNAQNTVYLQMNSLKPEDTEVYYCAADIIYGYEVYTYTSDYWGQGTQVTVSS", "polyreactivity (PSR sort gate)": "low polyreactivity"}, {"sequence": "QVQLVESGGGLVQAGGSLRLSCAASGSIFAPNAMGWYRQAPGKERELVAAITLSGGSRYYADSVKGRFTISREIAMNNVYLQMNSLKPEDTAVYYCNADLLPADAPLWVTGGDYWGQGTQVTVSS", "polyreactivity (PSR sort gate)": "low polyreactivity"}, {"sequence": "QVQLQESGGGLVQAGGSLRPSCAASGSISDGVPMGWYRQAPGEERELVATTVLGATTNYADSVKGRFTISRGNAKNTVYLQMNSLKPEETEVYYCAAPLRYDKGFSYWGQGTQVTVSS", "polyreactivity (PSR sort gate)": "low polyreactivity"}, {"sequence": "QVQLVESGGGLVQAGGSLRLSCAASGRTIHYYAMGRSRQAPGKERELVAAITRGGNTYYADSVKGRFTISRDNAKNTVYLQMNSLKPEDTAVYYCAKDNHFEAYRYDYWGQGTQVTVSS", "polyreactivity (PSR sort gate)": "high polyreactivity"}, {"sequence": "QVQLVESGGGLVQAGGSLRLSCAASGGIFVGNAMGWYRQAPGKERELVAAITYRGGRTYYADSVKGRFTISRDNAKNTVYLQMNSLKPEDTAVYYCNAYKQGGRSKYNYWGQGTQVTVSS", "polyreactivity (PSR sort gate)": "high polyreactivity"}, {"sequence": "QVQLVESVGGLVQAGGSLRLSCAASGSTFVRYTMGWYRQAPGKERALVAAISWNGGRTYYADSVKGRFTISRDNTKNTVYLQMNSLKPEDTAVYYCNAVRLVYTGNSDYGYWGQGTQVTVSS", "polyreactivity (PSR sort gate)": "high polyreactivity"}, {"sequence": "QVQLVESGGGLVQAGGSLRLSCAASGITFGYYAMGWYRQAPGKERELVAAITYSGGSTYYADSVKGRFTISRDNAKNTVYLQMNSLKPEDTAVYYCNADWWAYYSFGHEYWGQGTQVTVSS", "polyreactivity (PSR sort gate)": "low polyreactivity"}, {"sequence": "KVQLVESGGGLVQAGGSLRLSCAASGRIFRYYAMGWSRQAPGKERELVAAISRGGGSTYYADSVKGRFTISRDNAKNTVYLQMNSLKPEDTAVYYCANSVGRGPIGYDYWGQGTQVTVSS", "polyreactivity (PSR sort gate)": "high polyreactivity"}, {"sequence": "QVQLVESGGGLVQAGGRLRLSCAASGSTFVWYAMVWYRQAPGKEREFVATISWSDGSTYYADSVKGRFTISRDNAKNTVYLQLNSLIPEDTAVYYCASDVDRFFTYKYDYWGQGTQVTVSS", "polyreactivity (PSR sort gate)": "low polyreactivity"}, {"sequence": "QVQLVESGGGLVQAGGSLRLICAASGITLPIYAMGWYRQAPGKERELVATISQRDARTYYADSVKGRFTISRDNAKNTVYLQMNSLKPEDTAVYYCARGYKKSVQRFEYWGQGTQVTVSS", "polyreactivity (PSR sort gate)": "high polyreactivity"}, {"sequence": "QVQLVESGGGLVQAGGSLRLSCAASGITFDKYAMGWYRQAPGKERELVAAISGSDGSTYYADSVKGRFTISRDNAKNTVYLQMNSLKPEDTAVYYCAAESEYAGTYEYDYWGQGTQVTVSS", "polyreactivity (PSR sort gate)": "low polyreactivity"}, {"sequence": "QVQLVESGGGLVQAGGSLRLSCGASGSTFYYYTMGWYRQAPGKERELVAAISFIGGSTYYADSVKGRFTISRDNAKNTVYLQMNSLKPEDTAVYYCAAEFYGLVSLSFSYDYWGQGTQVTVSS", "polyreactivity (PSR sort gate)": "low polyreactivity"}]}]}
